{
  "source": "paper PMC5641094",
  "about": "“A peptide antagonist of Prep1-p160 interaction improves ceramide-induced insulin resistance in skeletal muscle cells” (Oncotarget, 2017)",
  "molecules": {"B1": {"name": "p160 myb binding protein, endogenous in L6 cells (natural protein)", "chain": "MAEMKSPTKAEPASPAEAPQGDRRSLLEHSREFLDFFWDIAKPDQETRLRATEKLLEYLRTRPSDSEMKYALKRLITGLGVGREAARPCYSLALAQLLQSFEDIQLCDILGQIQEKYNLQAMNKAMMRPTLFANLFGVLALFQSGRLVKDKEALMKCVRLLKILSHHYNHLQGQPVKALVDILSEVPESMFQEILPKVLKGDMKVILSSPKYLELFLLARQRVPAELESLVGSVDLFSEDNIPSLVNILKVAANSVKKEQKLPDVALNLLRLALQENKFERFWKEVLEEGLLKKPSYTSSYMCFRLLGASLPLLSDEQLQLVMRGDLIRHFGEHMVVSKSQNPLRFIPEISAYVGTFLEGCQDDPKRQFTVMVAFTAITNQGLPVMPTFWRVTRFLNTEALQNYVTWLRDMFLQPDLDSLVDFSTANQKRVQVASLNVPERTVFRLRKWIIHRLVSLVDHLHLEKDEAVVEQIARFCLFHAFFKTKKATPQIPETKQHFSFPLEDGNRGVIVSAFFSLLQTLSVKFRQTPDLAENGKPWTYRLVQLADMLLKHNRNVANVTPLTAQQRQAWDQMMSTLKELEAQSSETRAIAFQHLLLLVGLHLFKSPAESCDVLGDIQTCIKKSMEQNLRRSRSRAKASQEPVWVEVMVEILLSLLAQPSNLMRQVVRSVFGHVCSHLTPRGLQLILAVLNPETNEDEEDNVVVTDTDEKQLKHGEDADSDSEDSKNSESDVDSEDGEESEEEDRDKDVDPGFRQQLMEVLQAGNALGGEEEEEEELGDEAMMALDQNLASLFAEQKMRIQARHEEKNKLQKEKQLRRDFQIRALDLIEVLVTKQPEHPLILELLEPLLNIIQRSMRSRGSTKQEQDLLHKTARIFMHHLCRARHYCHEVEPGAEALHAQVERLVQQAGNQADASVALYYFNASLYLLRVLKGNTTKRYQDGQKLEGADIKSEPKDSEVQTTSCLDLDFVTRVYSASLESLLTKRNSPLTIPMFLDLFSRYPVICKNLLPIVVQHVAGSSRPRHQAQACLLLQKALSARELRVCFEDPEWEQLISQVLGKTTQTLQTLGEAQSKGEHQRELSILELLNTVFRIVNHEKLSVDLTAFLGMLQGKQQKLQQNLQQGNHSSGSSRLYDLYWQAMNLLGVQRPKSEKKNVKDIPSDSQSPISTKRKKKGFLPETKKRKKLKSEGTTSEKKAASQQDAVTEGAMPAATGKDQPPSTGKKRRKRVKANTPSQVNGVTVAKSPAPNNPTLSPSTPPAKTPKVQKKKEKLSQVNGSTPVSPVEPESKKHQKALSTKEVKRRSSQSALPKKRARLSLVSRSPSLLQSGIRKRRVARRRVQTP"}, "B2": {"name": "Prep1(54-72) peptide (peptide)", "peptide": "Ac-KQAIYRHPLFPLLALLFEK-NH2", "notes": "Prep1 (Pbx regulating protein 1), stretch of the HR1 domain, named residues 54-72; Brought into L6 cells in the presence of liposomes for the cell experiments; source: synthetic peptide (Fmoc solid phase, RP-HPLC purified)"}},
  "key": {"L6 cells [1]": {"test_system": "L6 cells", "assay": "Cell toxicity in L6 cells", "assay_type": "cell-based, rat", "settings": "10μM peptide in the presence of liposomes, data not shown"}, "L6 cells [2]": {"test_system": "L6 cells", "assay": "FACS analysis of peptide uptake in L6 cells", "assay_type": "cell-based, rat", "settings": "FITC-conjugated peptide, increasing concentrations, in the presence of liposomes, harvested 48h later, FACS FL-1, four experiments", "procedure": "Figure 3 Design and in vitro effects of Prep1(54-72) peptide on Prep1/p160 association (A) Binding curves of Prep1(59-72) and Prep1(54-72) peptides to p160_20-160 by ELISA-like assays. Biotinylated peptides at several concentrations were added in triplicate to a 96-well plate coated with p160_20-160 (0.1μM). Experiments were performed at least twice and the average results fitted using GraphPad Prism. […] (B) Competition binding experiments. His6-tagged-p160_20-160 at 0.25μM was incubated with Prep1(59-72) and Prep1(54-72) at concentrations ranging between 0.001÷10μM and added to a 96-well plate coated with Prep1_45-155 (0.10μM). Results are the average of three independent experiments. (C) L6 cells were incubated with increasing concentrations of the fluorescein-conjugated peptide (FITC-Prep1(54-72)) and peptide uptake was detected by FACS analysis of fluorescein-labeled cells. […] Protein lysates were immunoprecipitated with Prep1 antibodies and analyzed by Western blot using antibodies for p160 or for Prep1. […] The blots were detected by ECL and autoradiography. […]\nL6 cells were incubated with negative control (NC) and Prep1(54-72) peptides conjugated with fluorescein isothiocianate (FITC) at different concentrations and harvested 48h later. […] The samples were acquired by a BD LSRFortessa (BD Bioscience, San Jose, CA) and analyzed using BD FACS Diva Software."}, "[3]": {"biological_target": "Prep1 (Pbx regulating protein 1), endogenous in L6 cells (rat (endogenous in L6))"}, "His6-tagged p160(20-160)": {"biological_target": "T1, His6-tagged p160(20-160) (UniProt Q7TPV4 20-160)", "T1 construct": "also called His6-p160(20-160); p160(20-160) domain", "T1 sequence (looked up)": "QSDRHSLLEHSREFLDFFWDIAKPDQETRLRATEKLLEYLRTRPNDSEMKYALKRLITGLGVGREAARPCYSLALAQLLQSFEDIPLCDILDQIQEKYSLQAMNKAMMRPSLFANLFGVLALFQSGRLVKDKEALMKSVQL", "assay": "ELISA; competition ELISA: plate coated with Prep1(45-155) (0.1 uM); His6-tagged p160(20-160) at 0.25 uM pre-incubated with peptides at 0.001-10 uM; detection with anti-His HRP-conjugated antibody", "settings": "both partners purified"}},
  "data": [
    {"molecule": "FITC-Prep1(54-72): fluorescein-conjugated Prep1(54-72) peptide", "values": [
      {"measurement": "cell toxicity", "setting": "L6 cells [1]", "value": "without inducing any apparent cell toxicity"},
      {"measurement": "peptide uptake into cells", "setting": "L6 cells [2]", "value": "dose-dependent manner"}
    ]},
    {"molecule": "B1", "values": [
      {"measurement": "decrease in p160 protein level in C2cer-treated L6 cells incubated with Prep1(54-72), Western blot", "setting": "[3]", "value": 25, "unit": "%"}
    ]},
    {"molecule": "B2", "values": [
      {"measurement": "IC50", "setting": "His6-tagged p160(20-160)", "value": 200, "unit": "nM"}
    ]}
  ]
}
